# T1: kUNG (kUNGΔ18), uracil-DNA glycosylase (Kaposi's sarcoma-associated herpesvirus …, UniProt F5HFA1 19-255)
# T1 sequence: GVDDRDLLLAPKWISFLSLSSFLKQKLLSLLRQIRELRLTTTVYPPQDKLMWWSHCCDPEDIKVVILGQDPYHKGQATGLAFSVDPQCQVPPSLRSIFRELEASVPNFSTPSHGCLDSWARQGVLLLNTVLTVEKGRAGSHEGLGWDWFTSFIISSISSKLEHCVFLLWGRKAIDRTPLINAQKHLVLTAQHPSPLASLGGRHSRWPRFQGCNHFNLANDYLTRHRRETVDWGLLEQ
# Biological target: T1, kUNG (kUNGΔ18), uracil-DNA glycosylase
# Assay: X-ray crystallography; product complex after uracil cleavage; 100 mM Mg acetate in crystallisation; Crystallisation: protein:DNA 1:1.2, annealing buffer 20 mM Tris-HCl pH 7.4, 100 mM NaCl, 20 mM MgCl2; crystals in 100 mM sodium acetate pH 4.5, 100 mM Mg acetate, 8% PEG 8000, 16 °C. Km/Vmax of mutants (Table 3) are turnover only and left out.
# Conditions: protein: recombinant; tags: N-terminal 6xHis-TEV cleaved; Ser-Ala-Ser remains; label: 5'-FAM on strand 1; 5' overhang 1 nt (strand 1); U:A pair
binder,measurement,value
"5'FAM-idu_2 duplex (dsDNA, dU at position 6 of strand 2; converted to abasic site (beta-anomer deoxyribose) in the product complex, no density for uracil) DNA 1: AAAGATAACATT DNA 2: AATGTUATCTT",binding result,binds
